Results published in US20260209387A1, “SINGLE-DOMAIN ANTIBODY FOR INHIBITION OF NEUTROPHIL ELASTASE ACTIVITY” (UNIVERSITE DE LIEGE, priority 2023, published 2026).
Each block holds one molecule with its values, some of them ahead of it.

How the values were obtained:
[1] = target: T1, hNE (Homo sapiens, UniProt P08246); assay: Spray-dried powder: hNE inhibition after solubilizing; assay type: biochemical; conditions: [hNE]:[ISVD] 1:1
T1 construct: purchased Elastin Products Company (EPC)
T1 sequence (P08246 30-247): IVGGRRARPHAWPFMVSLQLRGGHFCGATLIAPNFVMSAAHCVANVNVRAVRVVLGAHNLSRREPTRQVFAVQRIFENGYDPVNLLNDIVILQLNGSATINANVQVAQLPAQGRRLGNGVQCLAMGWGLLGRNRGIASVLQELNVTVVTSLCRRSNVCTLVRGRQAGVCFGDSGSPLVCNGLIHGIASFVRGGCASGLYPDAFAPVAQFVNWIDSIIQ
Experimental: Dry powders for inhalation were formulated with the NbE201 and the NbE201-PEG40. The spray dryer used was the PROCEPT's modular 4M8-Trix.
The inhibitory activity was also assessed after solubilizing the powders. The inhibitory capacity of the Nbs were assessed in an in vitro assay at a [hNE]:[ISVD] ratio of 1:1. The inhibition capacity of the solubilized powders was compared to the inhibition capacity of their respective controls (eg. untreated NbE201 or NbE201-PEG40). […] The protein concentration used to calculate the hNE: ISVD ratio was the concentration read after centrifugation.

[2] = Aggregates detection by Nanoparticle Tracking Analysis; assay type: physicochemical; conditions: after nebulization; for average counted particles per frame (NTA): 0.25 mg/ml
Experimental: 2.3.5 Aggregates Detection. Protein aggregates were visualized by Nanoparticle Tracking Analysis (NTA) (ZetaView, 220 Twin Laser, Particle Metrix, Ammersee, Germany), a technique used for measuring single particle size and concentration. NbE201, NbE201-PEG10 and NbE201-PEG40 solutions (0.25 mg/ml) were analysed before and after nebulization. 11 positions were analysed for which following parameters were used: • Laser wavelength: 488 nm • Scatter, no fluorescence • Sensitivity: 80 • Shutter: 100

[3] = target: T2, proteolytic activity of ciliary dyskinesia patient sputum (Homo sapiens, UniProt P08246); assay: Sputum proteolytic activity inhibition, ciliary dyskinesia sputum; assay type: biochemical; conditions: 10 mg sputum
T2 construct: Sputa from patients with cystic fibrosis, COPD or ciliary diskenisia above 18 years old were collected; from tissue; host or cells: expectorated sputum of patients with cystic fibrosis, COPD or ciliary dyskinesia
T2 sequence (P08246 30-267): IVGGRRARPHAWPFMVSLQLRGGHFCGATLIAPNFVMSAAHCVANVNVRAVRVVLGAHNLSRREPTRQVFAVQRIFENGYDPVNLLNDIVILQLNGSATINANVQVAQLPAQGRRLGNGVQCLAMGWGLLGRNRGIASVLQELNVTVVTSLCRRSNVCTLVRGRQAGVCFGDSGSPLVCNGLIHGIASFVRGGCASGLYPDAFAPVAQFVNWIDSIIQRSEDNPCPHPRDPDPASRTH
Experimental: (§1) 2.2.2 Evaluation of the proteolytic activity inhibition in CF, COPD and ciliary diskenisia sputa. […] Sputa collection procedures were evaluated by the local ethic committee (comité d'Ethique Hospitalo-Facultaire des Cliniques universitaires Saint-Luc) and approved under the Belgian registration number B4032021000071.
(§2) Sputum proteolytic activity was assessed by following with a spectrophotometer the absorbance at 410 nm of suc-Ala-Ala-Pro-Val-pNA degradation, the chromogenic hNE substrate. Sputa were classified as mucoid, muco-purulent or purulent (Serisier et al., 2009, Respir Res, 10 (1): 63. doi: 10.1186/1465-9921-10-6). According to the experiment, 10 to 20 mg of sputum were weighted in a 96-well plate. ISVDs were then added to the sputum samples and pre-incubated at 37° C. during different periods of time. The hNE substrate was diluted to a concentration of 1 mM in a tris buffer (0.1M tris, 0.5M NaCl, 0.01% Sodium azide (NaN3), pH 7.5) and 50 μl of this solution were added to the wells. The substrate degradation was followed during 50 min. […] Slopes were then calculated from the regression line drawn from the absorbance measurements and were expressed as a percentage of the sputum proteolytic activity without ISVDs.

[4] = Pharmacokinetic study, intratracheal instillation, BAL content by ELISA; assay type: in vivo, mice
Experimental: 2.5.1. Instillation of mice and collection of BAL. […] Broncho-alveolar lavages (BAL), nasal lavages (NAL), blood samples, and lungs were collected 0, 4 or 24 h after instillation. BAL and NAL were collected with 2 ml and 1 ml of Hanks' Balanced Salt Solution (HBSS) buffer respectively. Cells were discarded from BAL and NAL samples via a 5 min centrifugation at 300 g and supernatants were stored at −20° C. Lungs were collected in 0.5 ml of HBSS buffer, ground (Precellys evolution, Bertin Technologies, Montigny-le-bretonneux, France) and centrifuged at 300 g for 15 min. Supernatants were stored at −20° C. Blood was collected by intra-cardiac puncture and stored in anti-coagulant tubes (Microvette®) 500, K3 EDTA, VWR) at −20° C. All samples were treated with an anti-protease cocktail (Roche).
2.5.2. ELISA analysis. ISVD and AAT content in the BALs collected in vivo were measured by a sandwich ELISA method. An ELISA conversion pack from Meso scale Discovery (Rockville, USA) was used for ISVD analysis, according to the manufacturer instructions. Uncoated Mesoscale compatible plates were coated with an anti-histag antibody (BioLegend, San Diego, USA). ISVDs were then detected with an anti-VHH antibody (Jackson ImmunoResearch, Ely, UK) mixed with an anti-goat Sulfo-TAG labelled antibody (Meso scale Discovery) and the signal was read with an MESO QuickPlex SQ 120 MM (Meso scale Discovery). AAT content in the samples was measured by a commercial ELISA kit (Human Serpin Al DuoSet ELISA, R&D system, Mineapolis, USA) according to manufacturer instructions.

[5] = target: T3, proteolytic activity of COPD patient sputum (Homo sapiens, UniProt P08246); assay: Sputum proteolytic activity inhibition, COPD sputum; assay type: biochemical; conditions: 15 mg sputum, COPD patient in exacerbation
T3 construct: Sputa from patients with cystic fibrosis, COPD or ciliary diskenisia above 18 years old were collected; from tissue; host or cells: expectorated sputum of patients with cystic fibrosis, COPD or ciliary dyskinesia
T3 sequence (P08246 30-267): T2 sequence (P08246 30-267)
Experimental: as §1, §2

[6] = hNE + Solubilized powder, with aggregates
[7] = hNE + Solubilized powder, without aggregates (after centrifugation)

hNE Inhibition percentage ([1]; hNE + Control sdAb (untreated)): 76 ± 1% | hNE Inhibition percentage [1, 6]: 48 ± 5% | hNE Inhibition percentage [1, 7]: 78 ± 2%
B1: NbE201: anti-hNE ISVD (VHH/nanobody) from immunized lama, amino acid sequence SEQ ID NO: 4 (protein)
VHH: QVQLQESGGGLVQAGGSLRLSCVVPGRTISLYRMGWFRQAPGKEREFVAGINWSGDMTDYVDSVKGRFTISRDNAKNTVYLEMNSLKPEDTAIYYCTADPKLLPLADSSYGYWGQGTQVTVSS
average counted particles per frame (NTA) [2]: 228 | size of counted particles, percentile 10 [2]: 22.3±12 nm | size of counted particles, percentile 50 [2]: 138±8 nm | size of counted particles, percentile 90 [2]: 342.8±26 nm | inhibitory capacity in ciliary dyskinesia sputum [3]: No apparent differences in inhibitory capacity | percentage of the dose collected at time 0 quantified in BAL after 24 h ([4]; Swiss mice): 4.4% | percentage of the dose collected at time 0 quantified in BAL after 24 h ([4]; β-ENaC mice): 3.3% | inhibitory capacity in COPD sputum [5]: No apparent differences in inhibitory capacity

hNE Inhibition percentage ([1]; hNE + Control sdAb (untreated)): 70 ± 2% | hNE Inhibition percentage [1, 6]: 67 ± 2% | hNE Inhibition percentage [1, 7]: 72 ± 1%
B2: NbE201-PEG40: NbE201-Cter conjugated via C-terminal cysteine to branched 40 kDa PEG-maleimide (conjugate)
VHH: QVQLQESGGGLVQAGGSLRLSCVVPGRTISLYRMGWFRQAPGKEREFVAGINWSGDMTDYVDSVKGRFTISRDNAKNTVYLEMNSLKPEDTAIYYCTADPKLLPLADSSYGYWGQGTQVTVSSSPSTPPTPSPSTPPC
average counted particles per frame (NTA) [2]: far below that threshold | inhibitory capacity in ciliary dyskinesia sputum [3]: No apparent differences in inhibitory capacity | percentage of the dose collected at time 0 quantified in BAL after 24 h ([4]; Swiss mice): 65% | percentage of the dose collected at time 0 quantified in BAL after 24 h ([4]; β-ENaC mice): 56% | inhibitory capacity in COPD sputum [5]: No apparent differences in inhibitory capacity
